Data set [1] relates to Tif6 bound to 60S subunits. Put plainly: Tif6 release assay with purified yeast components. The format is biochemical, Saccharomyces cerevisiae. Conditions: 50 nM Efl1 variant, 50 nM Sdo1, 100 µM GTP, 30 °C, 10 min. As for the experimental part:
The release of Tif6 (yeast orthologue of eIF6) was performed as previously described in [3, 15]. Reaction mixtures contained 10 nM 60S subunits, 40 nM Tif6, 50 nM Efl1 variant, 50 nM Sdo1, and 100 µM GTP in buffer of 10 mM Tris-HCl at pH 7.4, 75 mM KCl, and 1.5 mM MgCl2 supplemented with RNAse inhibitors (Promega, Madison, WI, USA) and protease inhibitors free of EDTA (GoldBio, St. Louis, MO, USA). GTP was omitted in the negative control, and 50 mM EDTA was added as the positive control to disassemble the 60S ribosomal subunits. Reaction mixtures of 100 µL were incubated at 30 °C for 10 min and added on top of 150 µL of a 30% sucrose cushion prepared in the same buffer. Samples were centrifuged at 476,000× g for 30 min in an Optima tabletop MX ultracentrifuge with a TLA-100 rotor. The top 200 µL (free fraction) was recovered, and the remaining 50 µL was resuspended in 150 µL of the same buffer. Samples were precipitated with 30% trichloroacetic acid, electrophoresed in 10% Tris-glycine SDS-PAGE, transferred to a PVDF membrane, and immunoblotted with antibodies anti-eIF6 (PA531066; Thermo Scientific; dilution 1:3000) and anti-uL3 (OAAB09713; Aviva Systems Biology, San Diego, CA, USA; dilution 1:500) overnight at 4 °C. […] Signals were quantified using programme Image J version 1.8.0. […]

Substrate in data set [2]: Nc1nc2c(ncn2[C@@H]2O[C@H](COP(=O)(O)OP(=O)(O)OP(=O)(O)O)[C@@H](O)[C@H]2O)c(=O)[nH]1
As to the kind of experiment: GTP hydrolysis by PNP-coupled Enzchek phosphate assay (MESG, 360 nm), pH 7.5, 5 mM MgCl2, 6 µM Efl1 alone, Michaelis-Menten fit. It is filed as biochemical. The note with it: 25.0 °C. As for the experimental part: Finally, we measured the enzyme kinetics of mutant Efl1 R1086Q as an isolated enzyme and bound to Sdo1 using an enzymatic coupled assay with a purine nucleoside phosphorylase (PNP) enzyme. This analysis was extended to another disease mutation (EFL1 M882K) also located in domain IV of the GTPase using the equivalent yeast variant, Efl1 L910K [17]. The Km and kcat kinetic parameters were calculated using non-linear regression assuming a Michaelis–Menten model (Supplementary Table S1). […] The catalytic constant for mutant R1086Q and the wild-type enzyme consisted of 0.67 min^−1, and it was 0.58 min^−1 for mutant Efl1 L910K. […] In line with the proposed role of Sdo1 as a guanine exchange factor of Efl1, previous results have shown that the interaction of wild-type Efl1 with Sdo1 impacted its Km for GTP, decreasing its value 2–3-fold. The Km values for the complexes formed between Sdo1 and Efl1 mutants decreased by half with respect to their cognate-free counterpart and differed from each other. […] The measured Km value comprises all the microscopic rate constants of the individual reactions occurring in the enzyme, which include the binding to the substrate and product and the corresponding conformational changes.
Hydrolysis of GTP was measured using the Enzchek Phosphate Assay kit (Molecular Probes) as described by Webb. […]
Reactions were initiated and the GTPase was added after 3 min. Time courses were followed by recording the change in absorbance at 360 nm in a Cary 60 UV -Vis spectrophotometer (Agilent Technologies). Background absorbance was recorded prior to the addition of the GTPase and subtracted from the sample signals. The slope of the measured time courses corresponded to the GTP hydrolysis rate. […] Data were analysed by nonlinear regression to the M ichaelis-Menten equation with the program Origin Version 5.0 (OriginLab, Co., Northampton, MA). […]
Maximum emission at 440 nm was replotted as a function of nucleotide concentration and analysed

Data set [3] is described as follows: Enzyme kinetics of GTP hydrolysis (PNP coupled assay, Michaelis–Menten). It is filed as biochemical, Saccharomyces cerevisiae. Conditions: isolated enzyme.
On the set-up of data set [4]: method as in PMID 25991726, PMID 30780079, PMID 23831625. The note with it: wild-type Efl1; cited from earlier work.

B1: Efl1 wild type (Saccharomyces cerevisiae S288C) (protein)
chain: MPRVESETYKRLQNDPSCIRNICIVAHVDHGKTSLSDSLLASNGIISQRLAGKIRFLDARPDEQLRGITMESSAISLYFRVLRKQEGSDEPLVSEHLVNLIDSPGHIDFSSEVSAASRLCDGAVVLVDVVEGVCSQTVTVLRQCWTEKLKPILVLNKIDRLITELQLTPQEAYIHLSKVIEQVNSVIGSFFANERQLDDLFWREQLEKNENAEYIEKDDSGIYFNPTDNNVIFASAIDGWGFNIGQLAKFYEQKLGAKRENLQKVLWGDFYMDPKTKKIINNKGLKGRSLKPLFTSLILENIWKIYQNIITSRDSEMVEKIAKTLNIKLLARDLRSKDDKQLLRTIMGQWLPVSTAVLLTVIEKLPSPLESQTDRLNTILVSESDTAAMDPRLLKAMKTCDKEGPVSAYVSKMLSIPREELPVESKRIASSDELMERSRKAREEALNAAKHAGMVENMAMMDLNDNSKNTSDLYKRAKDTVMTPEVGEQTKPKPSRNNDVFCVVSEPSSALDLEFEYEGEDDSDSQDNFGLDFVPTDIDPNDPLSSMFEYEEEDPLLESIKQISEDVNDEVDDIFDEKEECLVAFARIYSGTLRVGQEISVLGPKYDPKCPEEHIETAIITHLYLFMGKELVPLDVCPSGNIVGIRGLAGKVLKSGTLIEKGVQGVNLAGVNFHFTPIVRVAVEPANPVEMSKLVRGLKLLDQADPCVHTYVENTGEHILCTAGELHLERCLKDLTERFAGIEITHSEPAIPYRETFLSASDMNPPQNSQLGRGVHELLLSQYKITFRTFPLSGKVTDFLSQHQNSIKNILKTSTSSMDPVIESTGSSFLDKKSLLVAFEEVINQEEKSRELLSGFKVKLAGFGPSRVGCNILLSQDNLLGSLFEGTPAAFEYSDSIKNGFQLAVSEGPLANEPVQGMCVLVESVHKMSQDEIESIEDPRYQQHIVDLSGRLITSTRDAIHEAFLDWSPRIMWAIYSCDIQTSVDVLGKVYAVILQRHGKIISEEMKEGTPFFQIEAHVPVVEAFGLSEDIRKRTSGAAQPQLVFSGFECIDLDPFWVPTTEEELEELGDTADRENIARKHMNAIRRRKGLFIEEKVVENAEKQRTLKKN
notes: recombinantly expressed in S. cerevisiae; isolated GTPase
What is called Km is the concentration of substrate that gives half-maximal velocity. By kcat is commonly meant the number of substrate molecules converted per active site and unit of time at saturation. Take B1: the “release of Tif6 from the 60S subunit (distribution of Tif6 in free and bound fraction, immunoblot)” value in data set [1] is “Tif6 was enriched in the free fraction”. Besides, in data set [2], the Km is 155 µM. For the same molecule, the kcat in data set [3] was found to be 0.0112 s⁻¹. Also, the “fold decrease of Km for GTP upon interaction with Sdo1” value in data set [4] is on record as 2–3 fold.

The values above are taken from article PMC9405973, “Altered Conformational Landscape upon Sensing Guanine Nucleotides in a Disease Mutant of Elongation Factor-like 1 (EFL1) GTPase” (Biomolecules, 2022).
